Assays:
Test in all cases: AVEXIS screen signal:noise (double-corrected)
ADP110 = biological target: ADP110
ADP132 = biological target: ADP132
ADP360 = biological target: T1, ADP360
T1 chain: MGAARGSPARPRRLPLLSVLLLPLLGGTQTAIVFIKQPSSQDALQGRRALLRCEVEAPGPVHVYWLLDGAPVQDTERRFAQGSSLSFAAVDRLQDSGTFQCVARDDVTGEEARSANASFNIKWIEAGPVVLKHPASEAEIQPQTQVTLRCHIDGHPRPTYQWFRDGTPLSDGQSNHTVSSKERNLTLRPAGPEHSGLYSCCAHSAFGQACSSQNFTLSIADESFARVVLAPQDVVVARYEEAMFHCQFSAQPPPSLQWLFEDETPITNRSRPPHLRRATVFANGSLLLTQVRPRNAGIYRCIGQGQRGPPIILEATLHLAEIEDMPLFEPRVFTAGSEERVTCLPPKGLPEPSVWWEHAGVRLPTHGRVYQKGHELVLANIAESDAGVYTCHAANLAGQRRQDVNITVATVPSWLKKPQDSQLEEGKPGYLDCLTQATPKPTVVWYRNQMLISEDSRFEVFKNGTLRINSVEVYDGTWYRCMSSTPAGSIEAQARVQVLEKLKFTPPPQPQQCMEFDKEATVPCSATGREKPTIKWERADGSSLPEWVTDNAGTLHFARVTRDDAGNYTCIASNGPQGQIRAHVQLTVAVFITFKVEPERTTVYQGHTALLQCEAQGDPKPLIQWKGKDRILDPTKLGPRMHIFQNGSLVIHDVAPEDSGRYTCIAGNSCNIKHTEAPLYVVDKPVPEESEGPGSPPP

ADP285 = biological target: T2, ADP285
T2 chain: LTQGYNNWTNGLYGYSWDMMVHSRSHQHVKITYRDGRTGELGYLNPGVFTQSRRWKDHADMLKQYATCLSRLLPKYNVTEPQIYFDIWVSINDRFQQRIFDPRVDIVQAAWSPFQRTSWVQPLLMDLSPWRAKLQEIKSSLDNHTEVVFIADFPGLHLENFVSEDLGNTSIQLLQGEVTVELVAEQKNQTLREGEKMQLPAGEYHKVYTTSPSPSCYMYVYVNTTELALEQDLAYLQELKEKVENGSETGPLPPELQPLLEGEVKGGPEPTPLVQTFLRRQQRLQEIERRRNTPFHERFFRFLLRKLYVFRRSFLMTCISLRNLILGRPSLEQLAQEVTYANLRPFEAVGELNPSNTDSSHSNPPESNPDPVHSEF

ADP103 = biological target: T3, ADP103
T3 chain: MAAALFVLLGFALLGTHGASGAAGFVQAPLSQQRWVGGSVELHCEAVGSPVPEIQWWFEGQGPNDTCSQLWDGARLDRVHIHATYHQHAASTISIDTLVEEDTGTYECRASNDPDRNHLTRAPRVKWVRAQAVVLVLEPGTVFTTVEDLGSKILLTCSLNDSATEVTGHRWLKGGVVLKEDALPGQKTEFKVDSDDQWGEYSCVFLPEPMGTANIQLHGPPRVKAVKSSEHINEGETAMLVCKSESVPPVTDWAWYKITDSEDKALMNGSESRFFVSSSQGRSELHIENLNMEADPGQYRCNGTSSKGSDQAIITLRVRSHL

ADP101 = biological target: T4, ADP101
T4 chain: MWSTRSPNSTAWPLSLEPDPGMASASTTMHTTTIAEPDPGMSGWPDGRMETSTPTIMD

ADP325 = biological target: T5, ADP325
T5 chain: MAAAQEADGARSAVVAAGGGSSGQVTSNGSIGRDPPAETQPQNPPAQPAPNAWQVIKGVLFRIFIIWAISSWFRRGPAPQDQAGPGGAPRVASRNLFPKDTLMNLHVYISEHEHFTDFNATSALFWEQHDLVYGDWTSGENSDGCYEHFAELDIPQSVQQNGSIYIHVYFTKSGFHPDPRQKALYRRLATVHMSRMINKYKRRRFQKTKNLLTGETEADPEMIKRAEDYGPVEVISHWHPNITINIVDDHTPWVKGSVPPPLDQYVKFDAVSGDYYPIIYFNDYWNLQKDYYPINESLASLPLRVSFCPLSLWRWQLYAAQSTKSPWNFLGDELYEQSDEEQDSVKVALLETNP

ADP141 = biological target: T6, ADP141
T6 chain: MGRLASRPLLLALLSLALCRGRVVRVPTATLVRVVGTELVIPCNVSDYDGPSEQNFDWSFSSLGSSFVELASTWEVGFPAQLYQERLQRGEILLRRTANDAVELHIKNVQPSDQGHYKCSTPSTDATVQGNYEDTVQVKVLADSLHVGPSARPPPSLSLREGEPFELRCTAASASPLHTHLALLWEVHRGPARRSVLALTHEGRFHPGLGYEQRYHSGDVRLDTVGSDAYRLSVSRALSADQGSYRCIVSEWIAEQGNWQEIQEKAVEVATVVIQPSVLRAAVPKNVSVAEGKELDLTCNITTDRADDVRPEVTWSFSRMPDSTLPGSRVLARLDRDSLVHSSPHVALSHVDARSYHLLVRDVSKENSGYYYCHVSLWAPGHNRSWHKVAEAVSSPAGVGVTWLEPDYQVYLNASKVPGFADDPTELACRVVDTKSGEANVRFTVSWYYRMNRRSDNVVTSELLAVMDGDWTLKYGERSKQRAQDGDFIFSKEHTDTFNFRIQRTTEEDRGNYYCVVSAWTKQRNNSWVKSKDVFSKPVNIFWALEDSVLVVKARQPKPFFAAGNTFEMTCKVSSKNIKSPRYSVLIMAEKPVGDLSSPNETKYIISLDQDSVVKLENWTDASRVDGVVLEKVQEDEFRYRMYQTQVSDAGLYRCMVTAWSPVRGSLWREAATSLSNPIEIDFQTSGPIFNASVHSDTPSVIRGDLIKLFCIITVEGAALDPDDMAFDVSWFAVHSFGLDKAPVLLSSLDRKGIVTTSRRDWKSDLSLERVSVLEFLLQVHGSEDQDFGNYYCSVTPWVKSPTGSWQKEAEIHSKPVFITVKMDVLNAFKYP

ADP104 = biological target: T7, ADP104
T7 chain: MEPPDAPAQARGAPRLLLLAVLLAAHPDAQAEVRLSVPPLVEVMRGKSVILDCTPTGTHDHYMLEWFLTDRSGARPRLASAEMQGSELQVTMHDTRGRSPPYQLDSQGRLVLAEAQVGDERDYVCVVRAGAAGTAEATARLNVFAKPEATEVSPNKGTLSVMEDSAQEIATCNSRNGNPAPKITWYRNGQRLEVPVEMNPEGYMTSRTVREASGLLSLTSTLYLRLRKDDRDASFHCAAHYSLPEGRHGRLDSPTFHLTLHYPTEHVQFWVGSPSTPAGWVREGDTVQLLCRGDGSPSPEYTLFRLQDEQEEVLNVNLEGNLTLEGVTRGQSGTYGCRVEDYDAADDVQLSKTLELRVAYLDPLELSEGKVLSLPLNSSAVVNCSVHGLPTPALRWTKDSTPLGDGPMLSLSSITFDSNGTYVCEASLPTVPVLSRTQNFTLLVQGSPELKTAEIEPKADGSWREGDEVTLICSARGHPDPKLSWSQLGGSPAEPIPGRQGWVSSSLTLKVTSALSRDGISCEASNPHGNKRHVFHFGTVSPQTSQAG

ADP296 = biological target: T8, ADP296
T8 chain: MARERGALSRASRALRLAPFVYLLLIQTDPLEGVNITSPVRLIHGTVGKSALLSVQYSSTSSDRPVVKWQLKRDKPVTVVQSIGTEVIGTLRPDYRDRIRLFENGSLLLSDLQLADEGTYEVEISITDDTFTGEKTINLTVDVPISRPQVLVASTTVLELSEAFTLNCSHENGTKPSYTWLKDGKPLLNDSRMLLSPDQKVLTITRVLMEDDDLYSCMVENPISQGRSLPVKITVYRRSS

B1: ADP190 (protein)
chain: IQLHSVNYAPLNYIEIGDTLSNKVGELWHSHLNSFIDIVSTKVVNKLEDDLSNGNNLEKFMILLEDDADIFDASAYEGKNLALIQTEFIRKLKDKFKNSKFGQKLKKLGSKAKEKLLSLYQKHKGKLRHFFSILLKSLVIPIAVQFIRKNLNKWKQRTLEATQKLDEQSKNIAQPIINRLYNSFEDKIEEYSQENKINVEDELNALGQLDKDKQDIQKLEEQEKALLQ
modifications: bait human Fc-tagged dimer; N-glycosylation sequons mutated in Plasmodium baits
B1 gave a binding score (ADP110) of 11.4 and a binding score (ADP132) of 11.3.

B2: ADP70 (protein)
chain: FENAIKKTKNQENNLALLPIKSTEEEKDDIKNGKDIKKEIDNDKENIKTNNAKDHSTYIKSYLNTNVNDGLKYLFIPSHNSFIKKYSVFNQINDGMLLNEKNDVKNNEDYKNVDYKNVNFLQYHFKELSNYNIANSIDILQEKEGHLDFVIIPHYTFLDYYKHLSYNSIYHKSSTYGKCIAVDAFIKKINEAYDKVKSKCNDIKNDLIATIKKLEHPYDINNKNDDSYRYDISEEIDDKSEETDDETEEVEDSIQDTDSNHAPSNKKKNDLMNRAFKKMMDEYNTKKKKLIKCIKNHENDFNKICMDMKNYGTNLFEQLSCYNNNFCNTNGIRYHYDEYIHKLILSVKSKNLNKDLSDMTNILQQSELLLTNLNKKMGSYIYIDTIKFIHKEMKHIFNRIEYHTKIINDKTKIIQDKIKLNIWRTFQKDELLKRILDMSNEYSLFITSDHLRQMLYNTFYSKEKHLNNIFHHLIYVLQMKFNDVPIKMEYFQTYKKNKPLTQ
modifications: bait human Fc-tagged dimer; N-glycosylation sequons mutated in Plasmodium baits
For B2, the binding score (ADP360) was 6.35, the binding score (ADP285) was 7.62 and the binding score (ADP103) was 4530. The binding score (ADP101) was 6.6.

B3: ADP222 (protein)
chain: NVVAPKSAEAVHTLTAKLDTENKAHQKYIDIINGVFSENMENFVFSITTSNGFTCSINKLDVIFDNKVTGMQKVFSDENVQYIKEASLEFKNNLLEYMKGVMPSENDFSNVRKEFQKVCVKYFSELRRKFFQIYRDPNNKNQNEDNVDNHMNIEEISQEFFSGFNPFGTMKIRKEQNPDLSQKDSLILNENNNDALTSADQKNNNMVPMENRAFSYSQQSSHVVSFDGHDEHVEQQEQHSGDNTQEDKDQLMDLPFNKDKVFSTFLKNVALLIEGNCAEAQQQAQEQTQEQTEEQEEEQNEKEIESDKQVQKDGEQKENDVQKKQKANAFTIQFSSSLSRKHISTTCNAASGNVFLRKGNKPFEHFNSPNFENMMKGVFGIIQNPFENGQPTFPFFKNINSISGIGNVDIPKNFMNDFLNNGNDQNTPISS
modifications: bait human Fc-tagged dimer; N-glycosylation sequons mutated in Plasmodium baits
In the case of B3, the binding score (ADP325) is reported as 6.14.

B4: ADP233 (protein)
chain: SPGNDNNNVNNDGVVHVLSKNIDVKNLQGTFYEIATNAADKIFPGLACRCTKYEFSGLKRDGNLGYVLINFACARNFIFGEKKSEMTFKLILNKPLDENTATVEEFNAAIYLVQGNQQILLNGNINIIYAELNEQNEFEHLILGGQKSIEPMIIMSKYRTVLLDTYNKLINSLYLAGYEPSLLTWPFIIQTDQTFCD
modifications: bait human Fc-tagged dimer; N-glycosylation sequons mutated in Plasmodium baits
B4 was tested, and the binding score (ADP141) was 5.97, the binding score (ADP104) was 7.73 and the binding score (ADP296) was 6.11.

From PMC11098746 (2024)
